Data on one molecule can be found in paper PMC2563036, “The HLH-6 Transcription Factor Regulates C. elegans Pharyngeal Gland Development and Function”.

One series concerns the target HLH-2;HLH-3 (Caenorhabditis elegans;Caenorhabditis …, UniProt G5EEG9;Q22717 1-399;1-170, |). Briefly: EMSA; co-translated in reticulocyte lysate; poly(dI-dC); EMSA with poly(dI-dC) (37 ng/ug as printed); 5% native PAGE, 100 V, 1 h, room temperature, 45 mM Tris, 45 mM boric acid, 1 mM EDTA pH 8; binding buffer not given in the material. The conditions noted are these: protein: ivt;ivt; tags: ;His; copies: 1;1; as annealed 5' overhangs of 2 nt (TG) on both strands; end labelled with Klenow, which may fill them in.

In another series the target is HLH-2;HLH-6 (Caenorhabditis elegans;Caenorhabditis …, UniProt G5EEG9;Q10007 1-399;1-268, |). Briefly: EMSA; reticulocyte lysate; poly(dI-dC); no shift though both proteins expressed; EMSA with poly(dI-dC) (37 ng/ug as printed); 5% native PAGE, 100 V, 1 h, room temperature, 45 mM Tris, 45 mM boric acid, 1 mM EDTA pH 8; binding buffer not given in the material. The conditions noted are these: protein: ivt;ivt; tags: ;; copies: 1;1; as annealed 5' overhangs of 2 nt (TG) on both strands; end labelled with Klenow, which may fill them in.
HLH-2;HLH-6, sequence (G5EEG9 whole entry, chain 1 of 2): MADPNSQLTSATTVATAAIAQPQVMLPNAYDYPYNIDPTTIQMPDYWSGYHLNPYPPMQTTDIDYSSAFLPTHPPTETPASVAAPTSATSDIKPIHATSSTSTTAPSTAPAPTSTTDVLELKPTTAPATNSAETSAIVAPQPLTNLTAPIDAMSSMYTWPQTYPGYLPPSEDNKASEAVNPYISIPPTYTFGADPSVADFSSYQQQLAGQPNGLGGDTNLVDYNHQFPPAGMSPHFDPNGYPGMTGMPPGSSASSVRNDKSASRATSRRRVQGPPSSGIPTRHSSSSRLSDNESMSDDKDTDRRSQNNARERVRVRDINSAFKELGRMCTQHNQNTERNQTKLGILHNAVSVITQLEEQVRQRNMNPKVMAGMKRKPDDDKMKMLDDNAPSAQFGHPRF
HLH-2;HLH-6, sequence (Q10007 whole entry, chain 2 of 2): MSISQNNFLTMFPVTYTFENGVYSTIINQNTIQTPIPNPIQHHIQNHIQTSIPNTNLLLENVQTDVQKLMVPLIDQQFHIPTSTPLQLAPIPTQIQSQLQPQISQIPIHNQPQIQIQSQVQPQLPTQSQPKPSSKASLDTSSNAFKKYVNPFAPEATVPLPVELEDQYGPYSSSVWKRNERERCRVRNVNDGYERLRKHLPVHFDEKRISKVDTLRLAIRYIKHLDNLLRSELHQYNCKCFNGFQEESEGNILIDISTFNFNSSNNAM

HLH-2;HLH-3, sequence (G5EEG9 whole entry, chain 1 of 2): as the sequence (G5EEG9 whole entry, chain 1 of 2) above
HLH-2;HLH-3, sequence (Q22717 whole entry, chain 2 of 2): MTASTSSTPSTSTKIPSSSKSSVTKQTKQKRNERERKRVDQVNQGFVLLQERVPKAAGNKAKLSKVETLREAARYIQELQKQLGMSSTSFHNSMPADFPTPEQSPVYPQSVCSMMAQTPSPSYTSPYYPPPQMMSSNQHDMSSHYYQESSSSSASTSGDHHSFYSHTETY

B1: phat-3 PGM1 probe (oGD137/oGD138) (dsDNA)
DNA 1: TGCAAACTTGATGCACCTGTTCAAATGTATGCCC
DNA 2: TGGGGCATACATTTGAACAGGTGCATCAAGTTTG
With B1, the binding result with HLH-2;HLH-3 was “binds”; with HLH-2;HLH-6, “no binding”.
